Reference: US20190309074A1, “DEGLYCOSYLATED ANTIBODY SPECIFICALLY BINDING TO CLEC14A AND USES THEREOF” (WOORI TECHNOLOGIES CORPORATION, priority 2016, published 2019)
Blank lines part the entries; values can stand above or below the molecule they belong to.

Tests used:
hclec14a-CTLD-Fc = target: T1, hclec14a-CTLD-Fc (human, UniProt Q86T13 31-172, limits assumed); experiment: ELISA on hclec14a-CTLD-Fc
T1 construct: domain: C-type lectin-like domain (CTLD); also called human clec14a-CTLD-Fc; human CTLD; not shown: Fc
T1 sequence (looked up): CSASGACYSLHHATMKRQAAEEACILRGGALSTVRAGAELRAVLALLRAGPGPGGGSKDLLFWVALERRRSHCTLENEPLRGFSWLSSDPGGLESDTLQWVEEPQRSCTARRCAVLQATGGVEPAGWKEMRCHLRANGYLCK

mclec14a-CTLD-Fc = target: T2, mclec14a-CTLD-Fc (mouse, UniProt Q8VCP9 31-172, limits assumed); experiment: ELISA on mclec14a-CTLD-Fc
T2 construct: domain: C-type lectin-like domain (CTLD); also called mouse clec14a-CTLD-Fc; mouse CTLD; not shown: Fc
T2 sequence (looked up): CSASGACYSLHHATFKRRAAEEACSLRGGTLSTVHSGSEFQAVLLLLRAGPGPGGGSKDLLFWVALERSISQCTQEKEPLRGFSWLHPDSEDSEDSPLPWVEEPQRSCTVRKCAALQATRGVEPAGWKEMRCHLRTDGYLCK

[1] = aggregation and purification amounts of deglycosylated antibodies, before and after φ; type: physicochemical; settings: based on 100 ml culture
HUVEC cells = experiment: EGM-dependent HUVEC tube formation; type: cell-based, human; settings: 20 ug/ml
Excerpt: EGM is a type of complex including a variety of angiogenesis factors, which has been used to induce strong angiogenesis using vascular endothelial cells.

HUVEC migration = experiment: IncuCyte HUVEC migration assay; type: cell-based, human; settings: 20 ug/ml
Method: In order to analyze in vitro efficacies of the optimized candidate antibodies on endothelial migration, which is another function of angiogenesis, HUVEC migration assay was conducted using an IncuCyte FLR live content imaging system (Essen Bioscience Inc). At this time, regarding a wound, a uniform wound was created using a wound maker commercially available from Incucyte and was treated with 20 ug/ml of respective antibodies, and inhibitory activity against migration was comparatively evaluated.

[2] = system: HUVECs (human umbilical vein endothelial cells); experiment: flow cytometry cross-species reactivity; type: cell-based; settings: 20 ug/ml
Method: (§1) In order to identify cross-species reactivity of the optimized antibodies, HUVECs (human umbilical vein endothelial cells) and MAECs (mouse aortic endothelial cells) were each cultured, the two cell groups were treated with 20 ug/ml of the parent antibody (original C1), deglyco C1, and clones 1, 13 and 16, and whether or not binding ability exists on the surface of two types of cells was identified by flow cytometry.

[3] = system: MAECs (mouse aortic endothelial cells); experiment: flow cytometry cross-species reactivity; type: cell-based; settings: 20 ug/ml
Method: as §1

GFP-transfected HUVECs = experiment: IncuCyte real-time VEGF-dependent angiogenesis assay; type: cell-based, human; settings: for anti-angiogenesis activity (tube length and branch point): 20 ug/ml; for changes in tube length (progression of angiogenesis): representative images
Method: In order to identify inhibitory activity of optimized candidate antibodies against angiogenesis dependent upon VEGF, which is a key factor of angiogenesis, anti-angiogenesis activity was comparatively analyzed using an IncuCyte FLR live content imaging system (Essen Bioscience Inc.) providing real-time analysis of angiogenesis. First, GFP-transfected HUVECs were seeded on a […] plate, were treated with 36 types of antibodies at a concentration of 20 ug/ml and in vitro efficacy was then compared. At this time, optimized antibodies were comparatively analyzed in terms of efficacy with parental IgG (parent antibody: clone 1 of WO 2013/187556), deglyco C1 and bevacizumab (Avastin) as positive control groups.

binding result (hclec14a-CTLD-Fc): binds | binding result (mclec14a-CTLD-Fc): binds
B1: deglyco C2 IgG (antibody, V domains shown)
VH: EVQLVESGGGLVQPGGSLRLSCAVSGFTFSGYDMSWIRQAPGKGLEWVAGIYPDGGNTYYADSVKGRFTISRDDSKNTFYLQMNSLRAEDTAVYYCARGATWWVLGPFDYWGQGTLVTVSS
VL: DIQLTQSPSSLSASVGDRVTITCTGSSSNIGATAVTWYQQKPGKAPKLLIYADSHRPSGVPSRFSGSGSGTDFTLTISSLQPEDFATYYCGAWDDSLSGYVFGQGTKVEIKR
notes: IgG expressed in HEK293 cells; also called Deg C2

B2: Deglyco-C3: deglycosylated clone 1 IgG; light chain CDR1 TGSSSNIGWSNVT (SEQ ID NO: 4) (antibody, V domains shown)
VH: EVQLVESGGGLVQPGGSLRLSCAVSGFTFSGYDMSWIRQAPGKGLEWVAGIYPDGGNTYYADSVKGRFTISRDDSKNTFYLQMNSLRAEDTAVYYCARGATWWVLGPFDYWGQGTLVTVSS
VL: DIQLTQSPSSLSASVGDRVTITCTGSSSNIGWSNVTWYQQKPGKAPKLLIYADSHRPSGVPSRFSGSGSGTDFTLTISSLQPEDFATYYCGAWDDSLSGYVFGQGTKVEIKR
Final um, After φ [1]: 2.768 mg | Final um, Before φ [1]: 2.918 mg | Fraction1, After φ [1]: 0.012 mg | Fraction1, Before φ [1]: 0.014 mg | Fraction2, After φ [1]: 2.109 mg | Fraction2, Before φ [1]: 2.209 mg | Fraction3, After φ [1]: 0.520 mg | Fraction3, Before φ [1]: 0.580 mg | Fraction4, After φ [1]: 0.127 mg | Fraction4, Before φ [1]: 0.129 mg

B3: Opti 13: IgG, heavy chain CDR3 GAMEQVLGPFDL (SEQ ID No: 37), VL of Deg C1 (antibody, V domains shown)
VH: EVQLVESGGGLVQPGGSLRLSCAVSGFTFSGYDMSWIRQAPGKGLEWVAGIYPDGGNTYYADSVKGRFTISRDDSKNTFYLQMNSLRAEDTAVYYCARGAMEQVLGPFDLWGQGTLVTVSS
VL: DIQLTQSPSSLSASVGDRVTITCTGSSSNIGRCGVTWYQQKPGKAPKLLIYADSHRPSGVPSRFSGSGSGTDFTLTISSLQPEDFATYYCGAWDDSLSGYVFGQGTKVEIKR
suppression of EGM-dependent tube formation (HUVEC cells): efficiently suppressing angiogenesis | endothelial migration inhibitory activity (HUVEC migration): same endothelial migration inhibitory activity as parent antibody (original C1), deglyco C1 IgG, and Avastin | binding to HUVEC surface [2]: had cross-species reactivity | binding to MAEC surface [3]: had cross-species reactivity

B4: Opti 16: IgG, heavy chain CDR3 GARRQVLGCFDF (SEQ ID No: 40), VL of Deg C1 (antibody, V domains shown)
VH: EVQLVESGGGLVQPGGSLRLSCAVSGFTFSGYDMSWIRQAPGKGLEWVAGIYPDGGNTYYADSVKGRFTISRDDSKNTFYLQMNSLRAEDTAVYYCARGARRQVLGCFDFWGQGTLVTVSS
VL: DIQLTQSPSSLSASVGDRVTITCTGSSSNIGRCGVTWYQQKPGKAPKLLIYADSHRPSGVPSRFSGSGSGTDFTLTISSLQPEDFATYYCGAWDDSLSGYVFGQGTKVEIKR
anti-angiogenesis activity (tube length and branch point) (GFP-transfected HUVECs): potent efficacy | changes in tube length (progression of angiogenesis) (GFP-transfected HUVECs): same efficacy as Suramin and Avastin | suppression of EGM-dependent tube formation (HUVEC cells): efficiently suppressing angiogenesis | endothelial migration inhibitory activity (HUVEC migration): same endothelial migration inhibitory activity as parent antibody (original C1), deglyco C1 IgG, and Avastin | binding to HUVEC surface [2]: had cross-species reactivity | binding to MAEC surface [3]: had cross-species reactivity

B5: Deglyco-C4: deglycosylated clone 1 IgG; light chain CDR1 TGSSSNIGAVVVT (SEQ ID NO: 5) (antibody, V domains shown)
VH: EVQLVESGGGLVQPGGSLRLSCAVSGFTFSGYDMSWIRQAPGKGLEWVAGIYPDGGNTYYADSVKGRFTISRDDSKNTFYLQMNSLRAEDTAVYYCARGATWWVLGPFDYWGQGTLVTVSS
VL: DIQLTQSPSSLSASVGDRVTITCTGSSSNIGAVVVTWYQQKPGKAPKLLIYADSHRPSGVPSRFSGSGSGTDFTLTISSLQPEDFATYYCGAWDDSLSGYVFGQGTKVEIKR
Final um, After φ [1]: 1.442 mg | Final um, Before φ [1]: 1.390 mg | Fraction1, After φ [1]: 0.015 mg | Fraction1, Before φ [1]: 0.019 mg | Fraction2, After φ [1]: 1.126 mg | Fraction2, Before φ [1]: 1.135 mg | Fraction3, After φ [1]: 0.251 mg | Fraction3, Before φ [1]: 0.255 mg | Fraction4, After φ [1]: 0.050 mg | Fraction4, Before φ [1]: 0.057 mg

B6: Opti 3: IgG, heavy chain CDR3 GATWWVLGAFDY (SEQ ID No: 27), VL of Deg C1 (antibody, V domains shown)
VH: EVQLVESGGGLVQPGGSLRLSCAVSGFTFSGYDMSWIRQAPGKGLEWVAGIYPDGGNTYYADSVKGRFTISRDDSKNTFYLQMNSLRAEDTAVYYCARGATWWVLGAFDYWGQGTLVTVSS
VL: DIQLTQSPSSLSASVGDRVTITCTGSSSNIGRCGVTWYQQKPGKAPKLLIYADSHRPSGVPSRFSGSGSGTDFTLTISSLQPEDFATYYCGAWDDSLSGYVFGQGTKVEIKR
anti-angiogenesis activity (tube length and branch point) (GFP-transfected HUVECs): potent efficacy | changes in tube length (progression of angiogenesis) (GFP-transfected HUVECs): same efficacy as Suramin and Avastin

B7: Opti 1: IgG, heavy chain CDR3 GAATKVLGKFDC (SEQ ID No: 25), VL of Deg C1 (antibody, V domains shown)
VH: EVQLVESGGGLVQPGGSLRLSCAVSGFTFSGYDMSWIRQAPGKGLEWVAGIYPDGGNTYYADSVKGRFTISRDDSKNTFYLQMNSLRAEDTAVYYCARGAATKVLGKFDCWGQGTLVTVSS
VL: DIQLTQSPSSLSASVGDRVTITCTGSSSNIGRCGVTWYQQKPGKAPKLLIYADSHRPSGVPSRFSGSGSGTDFTLTISSLQPEDFATYYCGAWDDSLSGYVFGQGTKVEIKR
anti-angiogenesis activity (tube length and branch point) (GFP-transfected HUVECs): potent efficacy | changes in tube length (progression of angiogenesis) (GFP-transfected HUVECs): same efficacy as Suramin and Avastin | suppression of EGM-dependent tube formation (HUVEC cells): efficiently suppressing angiogenesis | endothelial migration inhibitory activity (HUVEC migration): same endothelial migration inhibitory activity as parent antibody (original C1), deglyco C1 IgG, and Avastin | binding to HUVEC surface [2]: had cross-species reactivity | binding to MAEC surface [3]: had cross-species reactivity

B8: Deglyco-C2: deglycosylated clone 1 IgG; light chain CDR1 TGSSSNIGATAVT (SEQ ID NO: 3) (antibody, V domains shown)
VH: EVQLVESGGGLVQPGGSLRLSCAVSGFTFSGYDMSWIRQAPGKGLEWVAGIYPDGGNTYYADSVKGRFTISRDDSKNTFYLQMNSLRAEDTAVYYCARGATWWVLGPFDYWGQGTLVTVSS
VL: DIQLTQSPSSLSASVGDRVTITCTGSSSNIGATAVTWYQQKPGKAPKLLIYADSHRPSGVPSRFSGSGSGTDFTLTISSLQPEDFATYYCGAWDDSLSGYVFGQGTKVEIKR
Final um, After φ [1]: 5.018 mg | Final um, Before φ [1]: 5.032 mg | Fraction1, After φ [1]: 0.018 mg | Fraction1, Before φ [1]: 0.019 mg | Fraction2, After φ [1]: 3.702 mg | Fraction2, Before φ [1]: 3.718 mg | Fraction3, After φ [1]: 1.110 mg | Fraction3, Before φ [1]: 1.113 mg | Fraction4, After φ [1]: 0.198 mg | Fraction4, Before φ [1]: 0.201 mg

binding result (hclec14a-CTLD-Fc): binds | binding result (mclec14a-CTLD-Fc): binds
B9: deglyco C3 IgG (antibody, V domains shown)
VH: EVQLVESGGGLVQPGGSLRLSCAVSGFTFSGYDMSWIRQAPGKGLEWVAGIYPDGGNTYYADSVKGRFTISRDDSKNTFYLQMNSLRAEDTAVYYCARGATWWVLGPFDYWGQGTLVTVSS
VL: DIQLTQSPSSLSASVGDRVTITCTGSSSNIGWSNVTWYQQKPGKAPKLLIYADSHRPSGVPSRFSGSGSGTDFTLTISSLQPEDFATYYCGAWDDSLSGYVFGQGTKVEIKR
notes: IgG expressed in HEK293 cells; also called Deg C3

binding result (hclec14a-CTLD-Fc): binds | binding result (mclec14a-CTLD-Fc): binds
B10: deglyco C4 IgG (antibody, V domains shown)
VH: EVQLVESGGGLVQPGGSLRLSCAVSGFTFSGYDMSWIRQAPGKGLEWVAGIYPDGGNTYYADSVKGRFTISRDDSKNTFYLQMNSLRAEDTAVYYCARGATWWVLGPFDYWGQGTLVTVSS
VL: DIQLTQSPSSLSASVGDRVTITCTGSSSNIGAVVVTWYQQKPGKAPKLLIYADSHRPSGVPSRFSGSGSGTDFTLTISSLQPEDFATYYCGAWDDSLSGYVFGQGTKVEIKR
notes: IgG expressed in HEK293 cells; also called Deg C4
